Non-standard residues stand in square brackets, D forms with d. No end group written: not given here. Tyr(3-I) = N[C@@H](Cc1ccc(O)c(I)c1)C(=O)O
B1: CBP20 (natural protein)
chain: MSGGLLKALRSDSYVELSQYRDQHFRGDNEEQEKLLKKSCTLYVGNLSFYTTEEQIYELFSKSGDIKKIIMGLDKMKKTACGFCFVEYYSRADAENAMRYINGTRLDDRIIRTDWDAGFKEGRQYGRGRSGGQVRDEYRQDYDAGRGGYGKLAQNQ

Legend:
[1] = molecular target: T1, HIS-TEV-tagged CBP80(Δ2–23) (human, UniProt Q09161 24-790, Δ2–23); assay: crystal structure
T1 sequence: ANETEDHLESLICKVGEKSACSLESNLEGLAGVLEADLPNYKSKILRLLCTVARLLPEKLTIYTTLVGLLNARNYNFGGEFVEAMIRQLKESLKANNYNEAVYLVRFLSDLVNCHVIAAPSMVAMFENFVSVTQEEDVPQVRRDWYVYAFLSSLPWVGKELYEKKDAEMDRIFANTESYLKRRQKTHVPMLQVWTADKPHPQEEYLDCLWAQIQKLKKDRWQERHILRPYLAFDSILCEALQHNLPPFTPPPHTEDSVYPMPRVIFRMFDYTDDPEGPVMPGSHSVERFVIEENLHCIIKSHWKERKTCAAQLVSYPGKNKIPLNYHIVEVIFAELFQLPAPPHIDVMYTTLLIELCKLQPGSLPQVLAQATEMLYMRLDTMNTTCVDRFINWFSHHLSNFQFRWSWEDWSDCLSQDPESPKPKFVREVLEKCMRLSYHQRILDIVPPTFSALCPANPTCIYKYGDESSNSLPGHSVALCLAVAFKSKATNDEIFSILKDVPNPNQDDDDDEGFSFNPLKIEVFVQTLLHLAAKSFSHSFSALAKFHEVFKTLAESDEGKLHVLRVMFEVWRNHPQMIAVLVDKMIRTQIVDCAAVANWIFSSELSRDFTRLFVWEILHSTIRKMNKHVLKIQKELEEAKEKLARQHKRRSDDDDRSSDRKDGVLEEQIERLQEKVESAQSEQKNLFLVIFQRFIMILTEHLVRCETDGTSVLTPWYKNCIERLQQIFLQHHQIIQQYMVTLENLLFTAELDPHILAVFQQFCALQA

[2] = molecular target: T1, HIS-TEV-tagged CBP80(Δ2–23); assay: pull-down
[3] = molecular target: T2, cap-binding complex (CBC): preformed complex of CBP80–CBP20 (human, UniProt Q09161;P52298, Δ2–23); assay: fluorescence polarisation
T2 sequence 1: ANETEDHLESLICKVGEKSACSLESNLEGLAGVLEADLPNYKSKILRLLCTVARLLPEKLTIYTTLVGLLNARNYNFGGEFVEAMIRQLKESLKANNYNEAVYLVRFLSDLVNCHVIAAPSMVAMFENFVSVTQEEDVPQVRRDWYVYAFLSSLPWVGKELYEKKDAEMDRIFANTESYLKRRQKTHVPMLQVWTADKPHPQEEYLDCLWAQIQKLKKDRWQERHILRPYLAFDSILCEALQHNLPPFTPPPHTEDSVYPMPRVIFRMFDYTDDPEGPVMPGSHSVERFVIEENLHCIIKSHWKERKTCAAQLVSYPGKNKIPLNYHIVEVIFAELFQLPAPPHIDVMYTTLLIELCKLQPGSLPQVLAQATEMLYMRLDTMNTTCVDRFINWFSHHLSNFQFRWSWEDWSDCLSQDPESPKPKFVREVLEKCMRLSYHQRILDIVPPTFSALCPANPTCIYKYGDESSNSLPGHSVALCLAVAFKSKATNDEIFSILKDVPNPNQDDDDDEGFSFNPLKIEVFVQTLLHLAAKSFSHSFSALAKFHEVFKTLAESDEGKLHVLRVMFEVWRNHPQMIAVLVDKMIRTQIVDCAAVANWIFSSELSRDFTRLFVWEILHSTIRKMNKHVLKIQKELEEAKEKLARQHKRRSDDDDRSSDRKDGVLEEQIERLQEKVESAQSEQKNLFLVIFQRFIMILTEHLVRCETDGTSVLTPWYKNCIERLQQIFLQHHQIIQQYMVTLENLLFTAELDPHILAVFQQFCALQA
T2 sequence 2: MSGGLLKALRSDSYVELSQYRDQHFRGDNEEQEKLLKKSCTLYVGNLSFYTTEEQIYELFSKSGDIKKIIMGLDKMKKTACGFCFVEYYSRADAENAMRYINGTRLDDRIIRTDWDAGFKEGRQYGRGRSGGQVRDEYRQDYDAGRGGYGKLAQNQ

[4] = molecular target: T2, cap-binding complex (CBC): preformed …; assay: crystal structure

binding result [1] | binding result [3] | also measured | Binder
binds | – | – | B1
– | – | binding result [2]: binds | PASGKSKYEAMDFDSLLKEAQQSLH (domain or fragment) [PGC-1β amino acids 999–1023]
– | binds | – | MDFDSLLKEAQQS [PGC-1β peptide, amino acids 1009–1021]
– | binds | – | MDFDSLLKEGQQS [PGC-1β-10G]
binds | – | binding result [4]: binds | Ac-SEEALPASGKSK[Tyr(3-I)]EAMDFDSLLKEAQQSLH (not fully specified) [synthetic PGC-1β peptide spanning amino acids 994–1023]
